The text below walks through data of article PMC2633621 (Nature chemical biology, 2008).

Where a chain is given by its changes, count along the chain named. In names and notes the source's numbering stands.

Data set [1] has as its target T1, I211R mutant Kvβ2 expressed in complex with the T1 domain (rat, UniProt P62483 36-367, I211R).
T1 sequence (looked up): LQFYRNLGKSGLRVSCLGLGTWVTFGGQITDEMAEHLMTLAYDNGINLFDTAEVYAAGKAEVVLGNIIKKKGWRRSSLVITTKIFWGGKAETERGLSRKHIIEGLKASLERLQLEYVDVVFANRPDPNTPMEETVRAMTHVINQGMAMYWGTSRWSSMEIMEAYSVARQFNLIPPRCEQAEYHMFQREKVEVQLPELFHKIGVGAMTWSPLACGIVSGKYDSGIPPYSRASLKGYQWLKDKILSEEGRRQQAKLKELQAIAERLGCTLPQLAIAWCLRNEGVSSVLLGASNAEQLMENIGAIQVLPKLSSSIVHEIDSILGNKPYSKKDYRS
Put plainly: pull-down.

The data set “crystal structure” deals with the molecule itself. The experiment in a line: crystal structure.

B1: T1 domain of Kv1.1 (residues 2 to 135), fusion with N-terminal 6-histidine tag and SUMO protein (domain or fragment, rat, UniProt P10499 2-135, looked up)
chain: TVMSGENADEASAAPGHPQDGSYPRQADHDDHECCERVVINISGLRFETQLKTLAQFPNTLLGNPKKRMRYFDPLRNEYFFDRNRPSFDAILYYYQSGGRLRRPVNVPLDMFSEEIKFYELGEEAMEKFREDEG
Consider B1, for which the binding result in data set [1] is recorded as “binds”.

B2: Kvβ2 conserved core (residues 36 to 367), purified and co-crystallized with cortisone (domain or fragment, rat, UniProt P62483 36-367, looked up)
chain: T1 sequence (looked up) with R176I
As for B2, the stoichiometry N (commonly the number of molecules, sites or subunits per partner or assembly) in “crystal structure” is 4.

B3: W121A mutant Kvβ2, co-crystallized with cortisone (domain or fragment, rat, UniProt P62483 36-367, looked up)
chain: T1 sequence (looked up) with W86A, R176I
For the molecule B3, in “crystal structure”, the binding result is “binds”.

B4: I211R mutant Kvβ2, co-crystallized with 2 mM cortisone (domain or fragment, rat, UniProt P62483 36-367, looked up)
chain: T1 sequence (looked up)
On to B4, for which the binding result in “crystal structure” was “binds”.
